Experiments:
[1] = molecular target: T1, Lys(Dnp)-ATNATVIPRIVGG-Lys(Abz)
T1 chain: KATNATVIPRIVGGK

[2] = molecular target: T2, Lys(Dnp)-ATNATVVPRIVGG-Lys(Abz)
T2 chain: KATNATVVPRIVGGK

[3] = molecular target: T3, Lys(Dnp)-ATNATIVPRIVGG-Lys(Abz)
T3 chain: KATNATIVPRIVGGK

[4] = molecular target: T4, Lys(Dnp)-ATNATVFPRIVGG-Lys(Abz)
T4 chain: KATNATVFPRIVGGK

[5] = molecular target: T5, Lys(Dnp)-ATNATLVPRIVGG-Lys(Abz)
T5 chain: KATNATLVPRIVGGK

[6] = molecular target: T6, Lys(Dnp)-ATNATYWPRIVGG-Lys(Abz)
T6 chain: KATNATYWPRIVGGK

[7] = molecular target: T7, Lys(Dnp)-ATNATIRPRIVGG-Lys(Abz)
T7 chain: KATNATIRPRIVGGK

[8] = molecular target: T8, Lys(Dnp)-ATNATIMPRIVGG-Lys(Abz)
T8 chain: KATNATIMPRIVGGK

[9] = molecular target: T9, Lys(Dnp)-ATNATIHPRIVGG-Lys(Abz)
T9 chain: KATNATIHPRIVGGK

[10] = molecular target: T10, Lys(Dnp)-ATNATNEPRIVGG-Lys(Abz)
T10 chain: KATNATNEPRIVGGK

[11] = molecular target: T11, Lys(Dnp)-ATNATGLPRIVGG-Lys(Abz)
T11 chain: KATNATGLPRIVGGK

[12] = molecular target: T12, Lys(Dnp)-ATNATPTPRIVGG-Lys(Abz)
T12 chain: KATNATPTPRIVGGK

[13] = molecular target: T13, Lys(Dnp)-ATNATKKPRIVGG-Lys(Abz)
T13 chain: KATNATKKPRIVGGK

[14] = molecular target: T14, Lys(Dnp)-ATNATQAPRIVGG-Lys(Abz)
T14 chain: KATNATQAPRIVGGK

[15] = molecular target: T15, Lys(Dnp)-ATNATVAPRIVGG-Lys(Abz)
T15 chain: KATNATVAPRIVGGK

[16] = molecular target: T16, Lys(Dnp)-ATNATWYPRIVGG-Lys(Abz)
T16 chain: KATNATWYPRIVGGK

[17] = molecular target: T17, Lys(Dnp)-ATNATNNPRIVGG-Lys(Abz)
T17 chain: KATNATNNPRIVGGK

[18] = molecular target: T18, Lys(Dnp)-ATNATFIPRIVGG-Lys(Abz)
T18 chain: KATNATFIPRIVGGK

[19] = molecular target: T19, Lys(Dnp)-ATNATQSPRIVGG-Lys(Abz)
T19 chain: KATNATQSPRIVGGK

[20] = molecular target: T20, Lys(Dnp)-ATNATTYPRIVGG-Lys(Abz)
T20 chain: KATNATTYPRIVGGK

[21] = molecular target: T21, Lys(Dnp)-ATNATKLPRIVGG-Lys(Abz)
T21 chain: KATNATKLPRIVGGK

[22] = molecular target: T22, Lys(Dnp)-ATNATMNPRIVGG-Lys(Abz)
T22 chain: KATNATMNPRIVGGK

[23] = molecular target: T23, Lys(Dnp)-ATNATPMPRIVGG-Lys(Abz)
T23 chain: KATNATPMPRIVGGK

[24] = molecular target: T24, Lys(Dnp)-ATNATNIPRIVGG-Lys(Abz)
T24 chain: KATNATNIPRIVGGK

[25] = molecular target: T25, Lys(Dnp)-ATNATKRPRIVGG-Lys(Abz)
T25 chain: KATNATKRPRIVGGK

[26] = molecular target: T26, Lys(Dnp)-ATNATDTPRIVGG-Lys(Abz)
T26 chain: KATNATDTPRIVGGK

[27] = molecular target: T27, Lys(Dnp)-ATNATQIPRIVGG-Lys(Abz)
T27 chain: KATNATQIPRIVGGK

[28] = molecular target: T28, Lys(Dnp)-ATNATAWPRIVGG-Lys(Abz)
T28 chain: KATNATAWPRIVGGK

[29] = molecular target: T29, Lys(Dnp)-ATNATIDPRIVGG-Lys(Abz)
T29 chain: KATNATIDPRIVGGK

[30] = molecular target: T30, Lys(Dnp)-ATNATMAPRIVGG-Lys(Abz)
T30 chain: KATNATMAPRIVGGK

[31] = molecular target: T31, Lys(Dnp)-ATNATYRPRIVGG-Lys(Abz)
T31 chain: KATNATYRPRIVGGK

[32] = molecular target: T32, Lys(Dnp)-ATNATWWPRIVGG-Lys(Abz)
T32 chain: KATNATWWPRIVGGK

[33] = molecular target: T33, Lys(Dnp)-ATNATADPRIVGG-Lys(Abz)
T33 chain: KATNATADPRIVGGK

[34] = molecular target: T34, Lys(Dnp)-ATNATKAPRIVGG-Lys(Abz)
T34 chain: KATNATKAPRIVGGK

[35] = molecular target: T35, Lys(Dnp)-ATNATVRPRIVGG-Lys(Abz)
T35 chain: KATNATVRPRIVGGK

[36] = molecular target: T36, Lys(Dnp)-ATNATHHPRIVGG-Lys(Abz)
T36 chain: KATNATHHPRIVGGK

[37] = molecular target: T37, Lys(Dnp)-ATNATINPRIVGG-Lys(Abz)
T37 chain: KATNATINPRIVGGK

[38] = molecular target: T38, Lys(Dnp)-ATNATTRPRIVGG-Lys(Abz)
T38 chain: KATNATTRPRIVGGK

[39] = molecular target: T39, Lys(Dnp)-ATNATRHPRIVGG-Lys(Abz)
T39 chain: KATNATRHPRIVGGK

[40] = molecular target: T40, Lys(Dnp)-ATNATWNPRIVGG-Lys(Abz)
T40 chain: KATNATWNPRIVGGK

[41] = molecular target: T41, Lys(Dnp)-ATNATRNPRIVGG-Lys(Abz)
T41 chain: KATNATRNPRIVGGK

B1: Human plasma purified Factor Xa (protein)
chain 1: ANSFLEEMKKGHLERECMEETCSYEEAREVFEDSDKTNEFWNKYKDGDQCETSPCQNQGKCKDGLGEYTCTCLEGFEGKNCELFTRKLCSLDNGDCDQFCHEEQNSVVCSCARGYTLADNGKACIPTGPYPCGKQTLER
chain 2: IVGGQECKDGECPWQALLINEENEGFCGGTILSEFYILTAAHCLYQAKRFKVRVGDRNTEQEEGGEAVHEVEVVIKHNRFTKETYDFDIAVLRLKTPITFRMNVAPACLPERDWAESTLMTQKTGIVSGFGRTHEKGRQSTRLKMLEVPYVDRNSCKLSSSFIITQNMFCAGYDTKQEDACQGDSGGPHVTRFKDTYFVTGIVSWGEGCARKGKYGIYTKVTAFLKWIDRSMKTRGLPKAKSHAPEVITSSPLK
- FXa kcat/KM [1]: 120 M⁻¹ s⁻¹
- FXa kcat/KM [2]: 54 M⁻¹ s⁻¹
- FXa kcat/KM [3]: 360 M⁻¹ s⁻¹
- FXa kcat/KM [4]: 54 M⁻¹ s⁻¹
- FXa kcat/KM [5]: 360 M⁻¹ s⁻¹
- FXa kcat/KM [6]: 54 M⁻¹ s⁻¹
- FXa kcat/KM [7]: 760 M⁻¹ s⁻¹
- FXa kcat/KM [8]: 2100 M⁻¹ s⁻¹
- FXa kcat/KM [9]: 810 M⁻¹ s⁻¹

B2: Human plasma purified Factor Xa (Molecular Innovations, Inc) (protein)
chain 1: B1 chain 1
chain 2: B1 chain 2
- FXa kcat/KM [10]: 20 M⁻¹ s⁻¹
- FXa kcat/KM [11]: 78 M⁻¹ s⁻¹
- FXa kcat/KM [12]: 840 M⁻¹ s⁻¹
- FXa kcat/KM [13]: 25 M⁻¹ s⁻¹
- FXa kcat/KM [14]: 410 M⁻¹ s⁻¹
- FXa kcat/KM [15]: 62 M⁻¹ s⁻¹
- FXa kcat/KM [16]: 60 M⁻¹ s⁻¹
- FXa kcat/KM [17]: 15 M⁻¹ s⁻¹
- FXa kcat/KM [18]: 150 M⁻¹ s⁻¹
- FXa kcat/KM [19]: 950 M⁻¹ s⁻¹
- FXa kcat/KM [20]: 23 M⁻¹ s⁻¹
- FXa kcat/KM [21]: 89 M⁻¹ s⁻¹
- FXa kcat/KM [22]: 430 M⁻¹ s⁻¹
- FXa kcat/KM [23]: 990 M⁻¹ s⁻¹
- FXa kcat/KM [24]: 38 M⁻¹ s⁻¹
- FXa kcat/KM [25]: 91 M⁻¹ s⁻¹
- FXa kcat/KM [26]: 6.4 M⁻¹ s⁻¹
- FXa kcat/KM [27]: 630 M⁻¹ s⁻¹
- FXa kcat/KM [28]: 460 M⁻¹ s⁻¹
- FXa kcat/KM [29]: 1300 M⁻¹ s⁻¹
- FXa kcat/KM [30]: 360 M⁻¹ s⁻¹
- FXa kcat/KM [31]: 610 M⁻¹ s⁻¹
- FXa kcat/KM [32]: 70 M⁻¹ s⁻¹
- FXa kcat/KM [33]: 56 M⁻¹ s⁻¹
- FXa kcat/KM [34]: 52 M⁻¹ s⁻¹
- FXa kcat/KM [35]: 430 M⁻¹ s⁻¹
- FXa kcat/KM [36]: 25 M⁻¹ s⁻¹
- FXa kcat/KM [37]: 870 M⁻¹ s⁻¹
- FXa kcat/KM [38]: 37 M⁻¹ s⁻¹
- FXa kcat/KM [39]: 2600 M⁻¹ s⁻¹
- FXa kcat/KM [40]: 22 M⁻¹ s⁻¹
- FXa kcat/KM [41]: 1700 M⁻¹ s⁻¹

From patent publication US20160024487
